Results: doi:10.1101/2023.02.23.529587 (bioRxiv, 2023)

B3: full-length OdhA from Corynebacterium glutamicum ATCC13032 (enzyme, UniProt Q8NRC3 1-1221, looked up)
chain: MSSASTFGQNAWLVDEMFQQFQKDPKSVDKEWRELFEAQGGPNTTPATTEAQPSAPKESAKPAPKAAPAAKAAPRVETKPADKTAPKAKESSVPQQPKLPEPGQTPIRGIFKSIAKNMDISLEIPTATSVRDMPARLMFENRAMVNDQLKRTRGGKISFTHIIGYAMVKAVMAHPDMNNSYDVIDGKPTLIVPEHINLGLAIDLPQKDGSRALVVAAIKETEKMNFSEFLAAYEDIVARSRKGKLTMDDYQGVTVSLTNPGGIGTRHSVPRLTKGQGTIIGVGSMDYPAEFQGASEDRLAELGVGKLVTITSTYDHRVIQGAVSGEFLRTMSRLLTDDSFWDEIFDAMNVPYTPMRWAQDVPNTGVDKNTRVMQLIEAYRSRGHLIADTNPLSWVQPGMPVPDHRDLDIETHNLTIWDLDRTFNVGGFGGKETMTLREVLSRLRAAYTLKVGSEYTHILDRDERTWLQDRLEAGMPKPTQAEQKYILQKLNAAEAFENFLQTKYVGQKRFSLEGAEALIPLMDSAIDTAAGQGLDEVVIGMPHRGRLNVLFNIVGKPLASIFNEFEGQMEQGQIGGSGDVKYHLGSEGQHLQMFGDGEIKVSLTANPSHLEAVNPVMEGIVRAKQDYLDKGVDGKTVVPLLLHGDAAFAGLGIVPETINLAKLRGYDVGGTIHIVVNNQIGFTTTPDSSRSMHYATDYAKAFGCPVFHVNGDDPEAVVWVGQLATEYRRRFGKDVFIDLVCYRLRGHNEADDPSMTQPKMYELITGRETVRAQYTEDLLGRGDLSNEDAEAVVRDFHDQMESVFNEVKEGGKKQAEAQTGITGSQKLPHGLETNISREELLELGQAFANTPEGFNYHPRVAPVAKKRVSSVTEGGIDWAWGELLAFGSLANSGRLVRLAGEDSRRGTFTQRHAVAIDPATAEEFNPLHELAQSKGNNGKFLVYNSALTEYAGMGFEYGYSVGNEDSIVAWEAQFGDFANGAQTIIDEYVSSGEAKWGQTSKLILLLPHGYEGQGPDHSSARIERFLQLCAEGSMTVAQPSTPANHFHLLRRHALSDLKRPLVIFTPKSMLRNKAAASAPEDFTEVTKFQSVINDPNVADAAKVKKVMLVSGKLYYELAKRKEKDGRDDIAIVRIEMLHPIPFNRISEALAGYPNAEEVLFVQDEPANQGPWPFYQEHLPELIPNMPKMRRVSRRAQSSTATGVAKVHQLEEKQLIDEAFEA

Assays:
crystal structure [1] = target: the molecule itself; assay: crystal structure
crystal structure [2] = target: the molecule itself; assay: crystal structure; remark: listed apart in the source
AUC = target: the molecule itself; assay: AUC
[3] = target: B3; assay: cryo-EM structure

B1: OdhAΔ97 (domain or fragment, Corynebacterium glutamicum ATCC13032, UniProt Q8NRC3 98-1221, looked up)
chain: KLPEPGQTPIRGIFKSIAKNMDISLEIPTATSVRDMPARLMFENRAMVNDQLKRTRGGKISFTHIIGYAMVKAVMAHPDMNNSYDVIDGKPTLIVPEHINLGLAIDLPQKDGSRALVVAAIKETEKMNFSEFLAAYEDIVARSRKGKLTMDDYQGVTVSLTNPGGIGTRHSVPRLTKGQGTIIGVGSMDYPAEFQGASEDRLAELGVGKLVTITSTYDHRVIQGAVSGEFLRTMSRLLTDDSFWDEIFDAMNVPYTPMRWAQDVPNTGVDKNTRVMQLIEAYRSRGHLIADTNPLSWVQPGMPVPDHRDLDIETHNLTIWDLDRTFNVGGFGGKETMTLREVLSRLRAAYTLKVGSEYTHILDRDERTWLQDRLEAGMPKPTQAEQKYILQKLNAAEAFENFLQTKYVGQKRFSLEGAEALIPLMDSAIDTAAGQGLDEVVIGMPHRGRLNVLFNIVGKPLASIFNEFEGQMEQGQIGGSGDVKYHLGSEGQHLQMFGDGEIKVSLTANPSHLEAVNPVMEGIVRAKQDYLDKGVDGKTVVPLLLHGDAAFAGLGIVPETINLAKLRGYDVGGTIHIVVNNQIGFTTTPDSSRSMHYATDYAKAFGCPVFHVNGDDPEAVVWVGQLATEYRRRFGKDVFIDLVCYRLRGHNEADDPSMTQPKMYELITGRETVRAQYTEDLLGRGDLSNEDAEAVVRDFHDQMESVFNEVKEGGKKQAEAQTGITGSQKLPHGLETNISREELLELGQAFANTPEGFNYHPRVAPVAKKRVSSVTEGGIDWAWGELLAFGSLANSGRLVRLAGEDSRRGTFTQRHAVAIDPATAEEFNPLHELAQSKGNNGKFLVYNSALTEYAGMGFEYGYSVGNEDSIVAWEAQFGDFANGAQTIIDEYVSSGEAKWGQTSKLILLLPHGYEGQGPDHSSARIERFLQLCAEGSMTVAQPSTPANHFHLLRRHALSDLKRPLVIFTPKSMLRNKAAASAPEDFTEVTKFQSVINDPNVADAAKVKKVMLVSGKLYYELAKRKEKDGRDDIAIVRIEMLHPIPFNRISEALAGYPNAEEVLFVQDEPANQGPWPFYQEHLPELIPNMPKMRRVSRRAQSSTATGVAKVHQLEEKQLIDEAFEA
stoichiometry N (crystal structure [1]): 6

B2: full-length KGD from Mycobacterium smegmatis (enzyme, UniProt A0R2B1 1-1227, looked up)
chain: MSSSPSPFGQNEWLVEEMYRKFRDDPSSVDPSWHEFLVDYSPEPTTDSASNGRTTTAAPVTPPTPAPAPAPEPKAAPKPAAKTEAKPAKPAKSATPAKGDESQILRGAAAAVVKNMNASLEVPTATSVRAIPAKLMIDNRVVINNHLKRTRGGKISFTHLLGYAIVQAVKKFPNMNRHFAVVDGKPTAITPAHTNLGLAIDLQGKDGNRSLVVAAIKRCETMRFGQFIAAYEDIVRRARDGKLTAEDFSGVTISLTNPGTLGTVHSVPRLMQGQGAIIGAGAMEYPAEFQGASEERIADLGIGKLITLTSTYDHRIIQGAESGDFLRTIHQLLLDDDFFDEIFRELGIPYEPVRWRTDNPDSIEDKNARVIELIAAYRNRGHLMADIDPLRLDNTRFRSHPDLDVNSHGLTLWDLDREFKVDGFAGVQRKKLRDILSVLRDAYCRHVGVEYTHILEPEQQRWIQERVETKHDKPTVAEQKYILSKLNAAEAFETFLQTKYVGQKRFSLEGAETVIPMMDAVIDQCAEHGLDEVVIAMPHRGRLNVLANIVGKPYSQIFSEFEGNLNPSQAHGSGDVKYHLGATGTYIQMFGDNDIEVSLTANPSHLEAVDPVLEGLVRAKQDLLDTGEEGSDNRFSVVPLMLHGDAAFAGQGVVAETLNLALLRGYRTGGTIHIVVNNQIGFTTAPTDSRSSEYCTDVAKMIGAPIFHVNGDDPEACAWVARLAVDFRQAFKKDVVIDMLCYRRRGHNEGDDPSMTQPYMYDVIDTKRGSRKAYTEALIGRGDISMKEAEDALRDYQGQLERVFNEVRELEKHEIEPSESVEADQQIPSKLATAVDKAMLQRIGDAHLALPEGFTVHPRVRPVLEKRREMAYEGRIDWAFAELLALGSLIAEGKLVRLSGQDTQRGTFTQRHAVIVDRKTGEEFTPLQLLATNPDGTPTGGKFLVYNSALSEFAAVGFEYGYSVGNPDAMVLWEAQFGDFVNGAQSIIDEFISSGEAKWGQLSDVVLLLPHGHEGQGPDHTSGRIERFLQLWAEGSMTIAMPSTPANYFHLLRRHGKDGIQRPLIVFTPKSMLRNKAAVSDIRDFTESKFRSVLEEPMYTDGEGDRNKVTRLLLTSGKIYYELAARKAKENREDVAIVRIEQLAPLPRRRLAETLDRYPNVKEKFWVQEEPANQGAWPSFGLTLPEILPDHFTGLKRISRRAMSAPSSGSSKVHAVEQQEILDTAFG
stoichiometry N (crystal structure [2]): 6

B3
stoichiometry N (AUC): 6

B4: OdhI from Corynebacterium glutamicum ATCC13032 (natural protein, UniProt Q8NQJ3 1-143, looked up)
chain: MSDNNGTPEPQVETTSVFRADLLKEMESSTGTAPASTGAENLPAGSALLVVKRGPNAGARFLLDQPTTTAGRHPESDIFLDDVTVSRRHAEFRINEGEFEVVDVGSLNGTYVNREPRNAQVMQTGDEIQIGKFRLVFLAGPAE
stoichiometry N [3]: 1
